Test results: patent US20260234223A1 (LEYDEN LABORATORIES B V, published 2026)

Assays:
[1] = target: T1, MERS-CoV Spike antigen (MERS-CoV, UniProt K9N5Q8 18-1291); assay: cell-based or functional assay
T1 sequence: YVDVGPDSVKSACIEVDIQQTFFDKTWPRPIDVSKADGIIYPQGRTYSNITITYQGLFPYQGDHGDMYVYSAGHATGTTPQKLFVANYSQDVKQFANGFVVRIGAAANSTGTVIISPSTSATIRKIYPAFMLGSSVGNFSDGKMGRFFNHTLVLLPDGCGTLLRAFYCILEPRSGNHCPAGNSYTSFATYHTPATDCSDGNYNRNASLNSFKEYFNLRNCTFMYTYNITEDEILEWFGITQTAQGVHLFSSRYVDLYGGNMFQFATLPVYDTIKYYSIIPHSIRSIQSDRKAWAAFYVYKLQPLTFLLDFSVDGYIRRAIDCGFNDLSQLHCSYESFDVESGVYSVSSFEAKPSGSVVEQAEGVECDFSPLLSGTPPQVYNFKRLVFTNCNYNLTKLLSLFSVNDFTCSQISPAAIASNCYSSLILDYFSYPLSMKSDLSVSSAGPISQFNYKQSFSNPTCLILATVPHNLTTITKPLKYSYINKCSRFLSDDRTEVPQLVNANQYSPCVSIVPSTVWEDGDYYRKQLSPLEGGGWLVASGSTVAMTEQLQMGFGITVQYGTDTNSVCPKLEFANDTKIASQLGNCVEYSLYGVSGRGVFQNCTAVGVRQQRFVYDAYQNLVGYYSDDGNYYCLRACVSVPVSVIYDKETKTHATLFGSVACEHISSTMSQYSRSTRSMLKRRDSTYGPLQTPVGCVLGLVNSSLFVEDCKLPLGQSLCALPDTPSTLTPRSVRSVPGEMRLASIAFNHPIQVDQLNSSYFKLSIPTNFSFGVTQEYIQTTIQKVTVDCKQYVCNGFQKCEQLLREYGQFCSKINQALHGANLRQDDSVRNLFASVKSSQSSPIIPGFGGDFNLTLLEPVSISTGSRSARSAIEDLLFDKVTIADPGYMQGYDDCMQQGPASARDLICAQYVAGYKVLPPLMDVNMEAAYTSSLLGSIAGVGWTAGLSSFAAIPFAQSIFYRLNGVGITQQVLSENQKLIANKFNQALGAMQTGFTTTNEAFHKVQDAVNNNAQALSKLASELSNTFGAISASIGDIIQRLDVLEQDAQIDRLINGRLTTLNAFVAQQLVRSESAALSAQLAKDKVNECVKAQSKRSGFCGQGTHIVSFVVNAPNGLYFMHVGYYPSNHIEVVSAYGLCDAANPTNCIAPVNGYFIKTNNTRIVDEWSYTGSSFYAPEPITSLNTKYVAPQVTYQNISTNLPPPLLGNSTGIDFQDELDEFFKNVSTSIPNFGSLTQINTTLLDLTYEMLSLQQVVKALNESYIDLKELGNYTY

[2] = target: T2, SARS-CoV-2 Spike antigen (Wuhan, wildtype) (SARS-CoV-2 (Wuhan), UniProt P0DTC2 14-1208); assay: cell-based or functional assay
[3] = target: T3, SARS-CoV-1 Spike antigen (SARS-CoV-1, UniProt P59594 14-1190); assay: cell-based or functional assay
[4] = target: T4, hCoV-229E Spike antigen (human coronavirus 229E, UniProt P15423 16-1110); assay: cell-based or functional assay
T4 sequence: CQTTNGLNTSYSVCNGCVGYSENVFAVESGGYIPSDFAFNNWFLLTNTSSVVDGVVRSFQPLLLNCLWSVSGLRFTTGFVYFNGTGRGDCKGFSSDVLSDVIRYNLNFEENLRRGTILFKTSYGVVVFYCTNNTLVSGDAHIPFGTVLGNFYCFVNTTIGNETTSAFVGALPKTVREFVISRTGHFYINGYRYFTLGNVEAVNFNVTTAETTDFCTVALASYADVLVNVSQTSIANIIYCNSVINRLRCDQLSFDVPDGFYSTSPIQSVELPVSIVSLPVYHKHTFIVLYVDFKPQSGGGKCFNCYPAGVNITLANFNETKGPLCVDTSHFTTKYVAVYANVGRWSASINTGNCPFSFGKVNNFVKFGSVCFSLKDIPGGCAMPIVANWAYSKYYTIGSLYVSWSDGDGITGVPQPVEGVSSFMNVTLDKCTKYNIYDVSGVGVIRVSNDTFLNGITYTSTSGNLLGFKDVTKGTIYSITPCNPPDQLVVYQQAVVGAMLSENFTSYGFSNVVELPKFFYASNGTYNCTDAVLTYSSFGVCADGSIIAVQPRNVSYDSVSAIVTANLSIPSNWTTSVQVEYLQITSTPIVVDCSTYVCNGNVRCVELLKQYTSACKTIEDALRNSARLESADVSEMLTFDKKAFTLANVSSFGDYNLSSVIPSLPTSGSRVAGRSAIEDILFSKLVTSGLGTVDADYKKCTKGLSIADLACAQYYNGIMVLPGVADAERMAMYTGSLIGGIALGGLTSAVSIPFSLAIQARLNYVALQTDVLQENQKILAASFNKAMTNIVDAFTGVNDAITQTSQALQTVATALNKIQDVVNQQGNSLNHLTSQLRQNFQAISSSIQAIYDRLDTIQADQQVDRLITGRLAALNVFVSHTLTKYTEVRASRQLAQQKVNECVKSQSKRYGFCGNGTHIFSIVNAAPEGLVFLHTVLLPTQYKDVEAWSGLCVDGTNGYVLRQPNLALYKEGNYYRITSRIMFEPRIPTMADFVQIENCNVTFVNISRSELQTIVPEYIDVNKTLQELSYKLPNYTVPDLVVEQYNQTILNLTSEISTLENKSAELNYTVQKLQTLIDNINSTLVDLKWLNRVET

[5] = target: T2, SARS-CoV-2 Spike antigen (Wuhan, …); assay: cell-based or functional assay; remark: listed apart in the source
[6] = target: T5, human coronavirus NL63 Spike antigen (human coronavirus NL63, UniProt Q6Q1S2 19-1291); assay: cell-based or functional assay
T5 sequence: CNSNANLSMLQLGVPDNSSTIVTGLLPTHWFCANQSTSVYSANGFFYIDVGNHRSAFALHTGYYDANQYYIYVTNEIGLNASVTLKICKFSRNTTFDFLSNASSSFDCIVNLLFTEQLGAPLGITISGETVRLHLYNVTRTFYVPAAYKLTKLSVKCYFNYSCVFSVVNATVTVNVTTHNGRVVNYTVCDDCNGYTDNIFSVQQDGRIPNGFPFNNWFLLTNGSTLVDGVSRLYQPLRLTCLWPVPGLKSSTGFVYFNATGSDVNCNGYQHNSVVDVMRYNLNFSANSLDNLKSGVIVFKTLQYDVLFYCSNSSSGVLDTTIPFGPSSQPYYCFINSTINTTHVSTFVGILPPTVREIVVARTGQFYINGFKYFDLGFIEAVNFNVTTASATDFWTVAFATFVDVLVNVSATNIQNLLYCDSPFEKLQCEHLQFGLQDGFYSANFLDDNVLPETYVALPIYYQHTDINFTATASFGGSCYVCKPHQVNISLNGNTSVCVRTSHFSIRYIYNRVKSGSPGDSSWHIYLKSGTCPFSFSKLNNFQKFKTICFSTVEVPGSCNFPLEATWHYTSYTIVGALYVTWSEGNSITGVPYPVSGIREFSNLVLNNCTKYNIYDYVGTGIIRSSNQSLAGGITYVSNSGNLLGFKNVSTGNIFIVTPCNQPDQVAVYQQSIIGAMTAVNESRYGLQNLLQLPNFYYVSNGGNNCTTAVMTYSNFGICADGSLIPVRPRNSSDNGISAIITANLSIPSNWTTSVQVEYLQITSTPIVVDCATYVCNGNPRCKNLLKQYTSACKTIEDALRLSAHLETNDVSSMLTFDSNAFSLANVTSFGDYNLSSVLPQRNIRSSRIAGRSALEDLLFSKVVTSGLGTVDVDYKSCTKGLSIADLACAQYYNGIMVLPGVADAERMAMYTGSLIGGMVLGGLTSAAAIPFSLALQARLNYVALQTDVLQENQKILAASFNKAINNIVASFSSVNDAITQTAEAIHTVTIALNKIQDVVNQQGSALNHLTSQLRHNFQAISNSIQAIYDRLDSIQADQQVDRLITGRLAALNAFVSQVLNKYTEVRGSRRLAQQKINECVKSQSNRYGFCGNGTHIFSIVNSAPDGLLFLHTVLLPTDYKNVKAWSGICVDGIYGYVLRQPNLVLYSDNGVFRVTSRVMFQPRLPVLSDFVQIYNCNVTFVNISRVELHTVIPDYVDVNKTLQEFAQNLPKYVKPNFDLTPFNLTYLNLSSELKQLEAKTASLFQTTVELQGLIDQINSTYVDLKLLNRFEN

[7] = target: T3, SARS-CoV-1 Spike antigen; assay: cell-based or functional assay; remark: listed apart in the source
[8] = target: T5, human coronavirus NL63 Spike antigen; assay: ELISA on coated spike antigen
[9] = target: T4, hCoV-229E Spike antigen; assay: MSD multiplex binding assay, Coronavirus Panel 3

B1: COV30-14 (antibody, V domains shown)
VH: QVQLVQSGAEVKKPGASVKVSCQTSGYTFTSYYMHWVRQAPGQGLEWMGLITPSGDDTYYAQRFQGRVTMTRDTSTSPTYMELSSLTSEDTAVYYCAKMSRAGGFDVWGQGTLVTVSS
VL: EVVLTQSPGTLSLSPGERATLSCRASQSITGRYLAWYQQKPGQAPRLLMYGESSRVTGIPDRFSGGGSGTDFTLTISRLEPEDFAVYYCQHFASSPPTYTFGQGTKLEIR
notes: also called the antibody according to the invention; the antibody according to invention
**Q.** With B1 as the binder, how does the “Live virus neutralization IC50” value [1] read?
**A.** 3.68 µg/mL

**Q.** And the “Live virus neutralization IC50” value [2]?
**A.** 25.4 µg/mL

**Q.** What about the “Live virus neutralization IC50” value [3] of the same binder?
**A.** 4.95 µg/mL

**Q.** And the “Pseudovirion neutralization IC50” value [4]?
**A.** > 250 µg/mL

**Q.** What about the “Pseudovirion neutralization IC50 (geometric mean)” value [5] of the same binder?
**A.** 0.211 µg/mL

**Q.** And the “Pseudovirion neutralization IC50” value [6]?
**A.** > 250 µg/mL

**Q.** And the “Pseudovirion neutralization IC50 (geometric mean)” value [7]?
**A.** 5.89 µg/mL

**Q.** Does B1 bind [8]?
**A.** no binding (tested: range tested 10.0-0.000002 nM)

**Q.** Does B1 bind [9]?
**A.** no binding (tested: dilution range starting from 555 ng/ml)
